The results in this text go back to PMC9873567 (2022).

In one assay the target is ERECTA (UniProt Q42371). The experiment in a line: anti-MYC co-IP, anti-HA blot.
In assay [1] the target is T1, GST-PUB30 (Arabidopsis thaliana, UniProt Q058P4 1-448).
T1 chain: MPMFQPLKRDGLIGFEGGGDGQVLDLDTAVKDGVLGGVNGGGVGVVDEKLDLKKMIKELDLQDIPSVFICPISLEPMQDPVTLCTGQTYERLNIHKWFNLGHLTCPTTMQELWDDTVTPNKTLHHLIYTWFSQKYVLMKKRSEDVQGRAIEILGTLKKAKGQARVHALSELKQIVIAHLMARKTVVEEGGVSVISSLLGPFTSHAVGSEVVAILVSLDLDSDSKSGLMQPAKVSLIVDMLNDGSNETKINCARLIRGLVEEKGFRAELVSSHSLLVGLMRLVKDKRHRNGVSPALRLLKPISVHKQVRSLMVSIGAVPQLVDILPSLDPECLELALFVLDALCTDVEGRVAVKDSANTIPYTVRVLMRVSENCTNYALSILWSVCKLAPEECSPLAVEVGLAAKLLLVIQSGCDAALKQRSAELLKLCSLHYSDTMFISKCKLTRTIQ
The experiment in a line: BLI.

Assay [2] deals with T2, GST-PUB31 (Arabidopsis thaliana, UniProt Q9FHN9 1-444).
T2 chain: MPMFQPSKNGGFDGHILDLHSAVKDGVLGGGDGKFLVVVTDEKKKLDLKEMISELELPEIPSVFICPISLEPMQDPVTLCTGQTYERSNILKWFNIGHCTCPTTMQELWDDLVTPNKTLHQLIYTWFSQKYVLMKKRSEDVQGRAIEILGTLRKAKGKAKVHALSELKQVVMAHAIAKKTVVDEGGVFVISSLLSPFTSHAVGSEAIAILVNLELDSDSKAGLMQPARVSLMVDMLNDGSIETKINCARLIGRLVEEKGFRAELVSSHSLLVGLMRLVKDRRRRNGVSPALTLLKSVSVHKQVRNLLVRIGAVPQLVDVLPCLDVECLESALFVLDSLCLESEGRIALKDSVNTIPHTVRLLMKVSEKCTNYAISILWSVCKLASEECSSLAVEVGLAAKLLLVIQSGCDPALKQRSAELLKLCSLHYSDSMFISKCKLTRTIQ
The experiment in a line: BLI.

Assay [3] addresses T1, GST-PUB30. As to the kind of experiment: BLI.
Assay [4] addresses T2, GST-PUB31. The experiment in a line: BLI.

Where two headings read alike, the source gives them in different places.

As to “PUB30 (from UniProt Q058P4) PUB30 T155A-MYC”, in the assay with ERECTA (reference: wild type PUB30-MYC, sites T155), the “binding against the reference” value is on record as “weaker”.

Take “PUB31 (from UniProt Q9FHN9) PUB31 T151A-MYC”: in the assay with ERECTA (reference: wild type PUB31-MYC, sites T151), the “binding against the reference” value is listed as “weaker”.

B1: MBP-BAK1_CD (domain or fragment)
chain: AWWRRKKPQDHFFDVPAEEDPEVHLGQLKRFSLRELQVASDNFSNKNILGRGGFGKVYKGRLADGTLVAVKRLKEERTQGGELQFQTEVEMISMAVHRNLLRLRGFCMTPTERLLVYPYMANGSVASCLRERPESQPPLDWPKRQRIALGSARGLAYLHDHCDPKIIHRDVKAANILLDEEFEAVVGDFGLAKLMDYKDTHVTTAVRGTIGHIAPEYLSTGKSSEKTDVFGYGVMLLELITGQRAFDLARLANDDDVMLLDWVKGLLKEKKLEALVDVDLQGNYKDEEVEQLIQVALLCTQSSPMERPKMSEVVRMLEGDGLAERWEEWQKEEMFRQDFNYPTHHPAVSGWIIGDSTSQIENEYPSGPR
B1: the results for the Kd with GST-PUB30 [1] and with GST-PUB31 [2] were 2.4 µM and 2 µM, respectively.

B2: MBP-ERECTA_CD (domain or fragment)
chain: CRPHNPPPFLDGSLDKPVTYSTPKLVILHMNMALHVYEDIMRMTENLSEKYIIGHGASSTVYKCVLKNCKPVAIKRLYSHNPQSMKQFETELEMLSSIKHRNLVSLQAYSLSHLGSLLFYDYLENGSLWDLLHGPTKKKTLDWDTRLKIAYGAAQGLAYLHHDCSPRIIHRDVKSSNILLDKDLEARLTDFGIAKSLCVSKSHTSTYVMGTIGYIDPEYARTSRLTEKSDVYSYGIVLLELLTRRKAVDDESNLHHLIMSKTGNNEVMEMADPDITSTCKDLGVVKKVFQLALLCTKRQPNDRPTMHQVTRVLGSFMLSEQPPAATDTSATLAGSCYVDEYANLKTPHSVNCSSMSASDAQLFLRFGQVISQNSE
Regarding B2, the Kd with GST-PUB30 [3] was determined as 15 µM; with GST-PUB31 [4] it was 11 µM.
